This is an account of results in patent publication US12679878B2, “CRF2 receptor agonists and their use in therapy” (SANOFI, priority 2020, dated 2026).

Starred links: 1 amine or outer side, 2 acyl side, 3 side chain; linkers in the order of their positions; H or OH if unused. Non-standard residues stand in square brackets, D forms with d. Groups on a side chain read outwards from the residue. No end group written: not given here. *: point of attachment. C20 diacid = O=C(O)CCCCCCCCCCCCCCCCCCC(=O)*; C18 diacid = O=C(O)CCCCCCCCCCCCCCCCC(=O)*; γGlu = O=C(O)[C@H](CCC(=O)[*:2])N[*:1]; Palmitoyl = CCCCCCCCCCCCCCCC(=O)*; AEEA = NCCOCCOCC(=O)O; Aib = CC(C)(N)C(=O)O

The target in this assay is human corticotropin-releasing factor 2α (CRF2 α receptor) (human), Q13324. The assay is described as follows: cell-based or functional assay.
human corticotropin-releasing factor 2α (CRF2 α receptor) (human), Q13324, sequence (Q13324 20-411): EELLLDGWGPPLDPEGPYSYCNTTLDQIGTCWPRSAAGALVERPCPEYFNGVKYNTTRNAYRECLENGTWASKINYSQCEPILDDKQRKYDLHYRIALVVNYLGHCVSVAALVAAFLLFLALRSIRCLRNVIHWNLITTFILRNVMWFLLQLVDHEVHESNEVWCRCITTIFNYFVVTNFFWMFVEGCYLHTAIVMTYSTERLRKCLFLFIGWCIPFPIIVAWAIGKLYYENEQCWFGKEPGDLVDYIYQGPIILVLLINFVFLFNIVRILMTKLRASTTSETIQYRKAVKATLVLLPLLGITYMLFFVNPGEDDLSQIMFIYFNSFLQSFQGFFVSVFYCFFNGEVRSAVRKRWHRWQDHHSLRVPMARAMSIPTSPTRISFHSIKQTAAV

B1: SEQ ID NO: 170 (peptide)
peptide: Ac-IVLSLD[dV]PIELK([AEEA-AEEA-γGlu-C18 diacid])QILLEQERQE[Aib]QREQAEKNEQILEQV-NH2
SMILES: CC[C@H](C)[C@H](NC(C)=O)C(=O)N[C@H](C(=O)N[C@@H](CC(C)C)C(=O)N[C@@H](CO)C(=O)N[C@@H](CC(C)C)C(=O)N[C@@H](CC(=O)O)C(=O)N[C@@H](C(=O)N1CCC[C@H]1C(=O)N[C@H](C(=O)N[C@@H](CCC(=O)O)C(=O)N[C@@H](CC(C)C)C(=O)N[C@@H](CCCCNC(=O)COCCOCCNC(=O)COCCOCCNC(=O)CC[C@H](NC(=O)CCCCCCCCCCCCCCCCC(=O)O)C(=O)O)C(=O)N[C@@H](CCC(N)=O)C(=O)N[C@H](C(=O)N[C@@H](CC(C)C)C(=O)N[C@@H](CC(C)C)C(=O)N[C@@H](CCC(=O)O)C(=O)N[C@@H](CCC(N)=O)C(=O)N[C@@H](CCC(=O)O)C(=O)N[C@@H](CCCNC(=N)N)C(=O)N[C@@H](CCC(N)=O)C(=O)N[C@@H](CCC(=O)O)C(=O)NC(C)(C)C(=O)N[C@@H](CCC(N)=O)C(=O)N[C@@H](CCCNC(=N)N)C(=O)N[C@@H](CCC(=O)O)C(=O)N[C@@H](CCC(N)=O)C(=O)N[C@@H](C)C(=O)N[C@@H](CCC(=O)O)C(=O)N[C@@H](CCCCN)C(=O)N[C@@H](CC(N)=O)C(=O)N[C@@H](CCC(=O)O)C(=O)N[C@@H](CCC(N)=O)C(=O)N[C@H](C(=O)N[C@@H](CC(C)C)C(=O)N[C@@H](CCC(=O)O)C(=O)N[C@@H](CCC(N)=O)C(=O)N[C@H](C(N)=O)C(C)C)[C@@H](C)CC)[C@@H](C)CC)[C@@H](C)CC)C(C)C)C(C)C
As to B1, the EC50 [nM], 0% HSA was 62.1 nM.

B2: SEQ ID NO: 20 (peptide)
peptide: IVLSLD[dV]PTKLK([γGlu-Palmitoyl])QKLLKQERQRK[Aib]REQAEKNKRILERV-NH2
modifications: N-terminus assumed
SMILES: CCCCCCCCCCCCCCCC(=O)N[C@@H](CCC(=O)NCCCC[C@H](NC(=O)[C@H](CC(C)C)NC(=O)[C@H](CCCCN)NC(=O)[C@@H](NC(=O)[C@@H]1CCCN1C(=O)[C@H](NC(=O)[C@H](CC(=O)O)NC(=O)[C@H](CC(C)C)NC(=O)[C@H](CO)NC(=O)[C@H](CC(C)C)NC(=O)[C@@H](NC(=O)[C@@H](N)[C@@H](C)CC)C(C)C)C(C)C)[C@@H](C)O)C(=O)N[C@@H](CCC(N)=O)C(=O)N[C@@H](CCCCN)C(=O)N[C@@H](CC(C)C)C(=O)N[C@@H](CC(C)C)C(=O)N[C@@H](CCCCN)C(=O)N[C@@H](CCC(N)=O)C(=O)N[C@@H](CCC(=O)O)C(=O)N[C@@H](CCCNC(=N)N)C(=O)N[C@@H](CCC(N)=O)C(=O)N[C@@H](CCCNC(=N)N)C(=O)N[C@@H](CCCCN)C(=O)NC(C)(C)C(=O)N[C@@H](CCCNC(=N)N)C(=O)N[C@@H](CCC(=O)O)C(=O)N[C@@H](CCC(N)=O)C(=O)N[C@@H](C)C(=O)N[C@@H](CCC(=O)O)C(=O)N[C@@H](CCCCN)C(=O)N[C@@H](CC(N)=O)C(=O)N[C@@H](CCCCN)C(=O)N[C@@H](CCCNC(=N)N)C(=O)N[C@H](C(=O)N[C@@H](CC(C)C)C(=O)N[C@@H](CCC(=O)O)C(=O)N[C@@H](CCCNC(=N)N)C(=O)N[C@H](C(N)=O)C(C)C)[C@@H](C)CC)C(=O)O
As for B2, the EC50 [nM], 0% HSA stood at 0.01 nM.

B3: SEQ ID NO: 171 (peptide)
peptide: IVLSLD[dV]PIKLK([AEEA-AEEA-γGlu-γGlu-C18 diacid])QILLKQERQK[Aib]QREQAEKNKQILAQV-NH2
modifications: N-terminus assumed
SMILES: CC[C@H](C)[C@H](N)C(=O)N[C@H](C(=O)N[C@@H](CC(C)C)C(=O)N[C@@H](CO)C(=O)N[C@@H](CC(C)C)C(=O)N[C@@H](CC(=O)O)C(=O)N[C@@H](C(=O)N1CCC[C@H]1C(=O)N[C@H](C(=O)N[C@@H](CCCCN)C(=O)N[C@@H](CC(C)C)C(=O)N[C@@H](CCCCNC(=O)COCCOCCNC(=O)COCCOCCNC(=O)CC[C@H](NC(=O)CC[C@H](NC(=O)CCCCCCCCCCCCCCCCC(=O)O)C(=O)O)C(=O)O)C(=O)N[C@@H](CCC(N)=O)C(=O)N[C@H](C(=O)N[C@@H](CC(C)C)C(=O)N[C@@H](CC(C)C)C(=O)N[C@@H](CCCCN)C(=O)N[C@@H](CCC(N)=O)C(=O)N[C@@H](CCC(=O)O)C(=O)N[C@@H](CCCNC(=N)N)C(=O)N[C@@H](CCC(N)=O)C(=O)N[C@@H](CCCCN)C(=O)NC(C)(C)C(=O)N[C@@H](CCC(N)=O)C(=O)N[C@@H](CCCNC(=N)N)C(=O)N[C@@H](CCC(=O)O)C(=O)N[C@@H](CCC(N)=O)C(=O)N[C@@H](C)C(=O)N[C@@H](CCC(=O)O)C(=O)N[C@@H](CCCCN)C(=O)N[C@@H](CC(N)=O)C(=O)N[C@@H](CCCCN)C(=O)N[C@@H](CCC(N)=O)C(=O)N[C@H](C(=O)N[C@@H](CC(C)C)C(=O)N[C@@H](C)C(=O)N[C@@H](CCC(N)=O)C(=O)N[C@H](C(N)=O)C(C)C)[C@@H](C)CC)[C@@H](C)CC)[C@@H](C)CC)C(C)C)C(C)C
As for B3, the EC50 [nM], 0% HSA was found to be 0.17 nM and the EC50 [nM], 0.1% HSA turned out to be 2.62 nM.

B4: SEQ ID NO: 172 (peptide)
peptide: IVLSLD[dV]PIKLK([AEEA-AEEA-γGlu-γGlu-C20 diacid])QILLKQERQK[Aib]QREQAEKNKQILAQV-NH2
modifications: N-terminus assumed
SMILES: CC[C@H](C)[C@H](N)C(=O)N[C@H](C(=O)N[C@@H](CC(C)C)C(=O)N[C@@H](CO)C(=O)N[C@@H](CC(C)C)C(=O)N[C@@H](CC(=O)O)C(=O)N[C@@H](C(=O)N1CCC[C@H]1C(=O)N[C@H](C(=O)N[C@@H](CCCCN)C(=O)N[C@@H](CC(C)C)C(=O)N[C@@H](CCCCNC(=O)COCCOCCNC(=O)COCCOCCNC(=O)CC[C@H](NC(=O)CC[C@H](NC(=O)CCCCCCCCCCCCCCCCCCC(=O)O)C(=O)O)C(=O)O)C(=O)N[C@@H](CCC(N)=O)C(=O)N[C@H](C(=O)N[C@@H](CC(C)C)C(=O)N[C@@H](CC(C)C)C(=O)N[C@@H](CCCCN)C(=O)N[C@@H](CCC(N)=O)C(=O)N[C@@H](CCC(=O)O)C(=O)N[C@@H](CCCNC(=N)N)C(=O)N[C@@H](CCC(N)=O)C(=O)N[C@@H](CCCCN)C(=O)NC(C)(C)C(=O)N[C@@H](CCC(N)=O)C(=O)N[C@@H](CCCNC(=N)N)C(=O)N[C@@H](CCC(=O)O)C(=O)N[C@@H](CCC(N)=O)C(=O)N[C@@H](C)C(=O)N[C@@H](CCC(=O)O)C(=O)N[C@@H](CCCCN)C(=O)N[C@@H](CC(N)=O)C(=O)N[C@@H](CCCCN)C(=O)N[C@@H](CCC(N)=O)C(=O)N[C@H](C(=O)N[C@@H](CC(C)C)C(=O)N[C@@H](C)C(=O)N[C@@H](CCC(N)=O)C(=O)N[C@H](C(N)=O)C(C)C)[C@@H](C)CC)[C@@H](C)CC)[C@@H](C)CC)C(C)C)C(C)C
Molecule B4 gave an EC50 [nM], 0% HSA of 0.04 nM and an EC50 [nM], 0.1% HSA of 2.76 nM.
